Test results reported in patent US20240199746A1 (published 2024).

T1: Ax1 protein, extracellular domain (human, UniProt P30530 26-451)
T1 construct: extracellular domain; also called Axl; Ark
T1 sequence (looked up): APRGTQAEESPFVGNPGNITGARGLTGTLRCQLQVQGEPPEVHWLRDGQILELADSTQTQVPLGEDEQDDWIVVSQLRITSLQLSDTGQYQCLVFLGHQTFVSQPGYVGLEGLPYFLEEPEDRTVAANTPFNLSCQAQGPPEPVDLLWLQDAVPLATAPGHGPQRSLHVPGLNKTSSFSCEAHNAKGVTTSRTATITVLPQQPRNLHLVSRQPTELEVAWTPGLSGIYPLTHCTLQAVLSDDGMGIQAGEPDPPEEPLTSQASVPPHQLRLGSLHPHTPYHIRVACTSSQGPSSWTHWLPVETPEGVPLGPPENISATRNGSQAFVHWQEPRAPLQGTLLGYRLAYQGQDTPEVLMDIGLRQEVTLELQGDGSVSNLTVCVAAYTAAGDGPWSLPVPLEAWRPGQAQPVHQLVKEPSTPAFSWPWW


Assays:
[1] = target: T1, Ax1 protein, extracellular domain; experiment: ELISA, mutant diluted 1:3
From the text: (§1) The DNA encoding the wild-type antibody was evolved to generate a mutant antibody library using Comprehensive Positional Evolution (CPE), which each position in the template antibody is randomized one at a time. Each mutant antibody in the library has only one single point mutation. The mutant antibodies in the library were generated by simultaneously screening for selective binding affinity to Ax1 at pH 6.0 over pH 7.4 by ELISA. Two mutant antibody dilutions were used: 1:3 and 1:9 dilutions.

[2] = target: T1, Ax1 protein, extracellular domain; experiment: ELISA, mutant diluted 1:9
From the text: as §1

Binder	Affinity ELISA CPE mutant ratio (1:3, pH 6.0/7.4) [1]	Affinity ELISA CPE mutant ratio (1:9, pH 6.0/7.4) [2]
HC-S103D (antibody, V domains shown, CPE single point mutant) VH: EVQLVQSGAEVKKPGATVKISCKVSGYSFTGHTMNWIRQPPGKGLEWIGLIKPSNGGTSYNQKFKGRVTISADKSISTAYLQWSSLKASDTAMYYCAHGHYEDYFAMDYWGQGTLVTVSS VL: DIQMTQSPSSLSASVGDRVTITCKASQDVSSAVAWYQQKPGQAPRLLIYWASTRHTGVPSRFSGSGSGTEFTLTISSLQPDDFATYYCQEHFSTPLTFGQGTKVEIK	4.24	2.23
HC-Y104P (antibody, V domains shown, CPE single point mutant) VH: EVQLVQSGAEVKKPGATVKISCKVSGYSFTGHTMNWIRQPPGKGLEWIGLIKPSNGGTSYNQKFKGRVTISADKSISTAYLQWSSLKASDTAMYYCAHGHYESPFAMDYWGQGTLVTVSS VL: DIQMTQSPSSLSASVGDRVTITCKASQDVSSAVAWYQQKPGQAPRLLIYWASTRHTGVPSRFSGSGSGTEFTLTISSLQPDDFATYYCQEHFSTPLTFGQGTKVEIK	2.54	2.42
LC-A032M (antibody, V domains shown, CPE single point mutant) VH: EVQLVQSGAEVKKPGATVKISCKVSGYSFTGHTMNWIRQPPGKGLEWIGLIKPSNGGTSYNQKFKGRVTISADKSISTAYLQWSSLKASDTAMYYCAHGHYESYFAMDYWGQGTLVTVSS VL: DIQMTQSPSSLSASVGDRVTITCKASQDVSSMVAWYQQKPGQAPRLLIYWASTRHTGVPSRFSGSGSGTEFTLTISSLQPDDFATYYCQEHFSTPLTFGQGTKVEIK	4.76	2.92
HC-Y101N (antibody, V domains shown, CPE single point mutant) VH: EVQLVQSGAEVKKPGATVKISCKVSGYSFTGHTMNWIRQPPGKGLEWIGLIKPSNGGTSYNQKFKGRVTISADKSISTAYLQWSSLKASDTAMYYCAHGHNESYFAMDYWGQGTLVTVSS VL: DIQMTQSPSSLSASVGDRVTITCKASQDVSSAVAWYQQKPGQAPRLLIYWASTRHTGVPSRFSGSGSGTEFTLTISSLQPDDFATYYCQEHFSTPLTFGQGTKVEIK	2.17	2.91
LC-A034D (antibody, V domains shown, CPE single point mutant) VH: EVQLVQSGAEVKKPGATVKISCKVSGYSFTGHTMNWIRQPPGKGLEWIGLIKPSNGGTSYNQKFKGRVTISADKSISTAYLQWSSLKASDTAMYYCAHGHYESYFAMDYWGQGTLVTVSS VL: DIQMTQSPSSLSASVGDRVTITCKASQDVSSAVDWYQQKPGQAPRLLIYWASTRHTGVPSRFSGSGSGTEFTLTISSLQPDDFATYYCQEHFSTPLTFGQGTKVEIK	3	2.6
HC-T033I (antibody, V domains shown, CPE single point mutant) VH: EVQLVQSGAEVKKPGATVKISCKVSGYSFTGHIMNWIRQPPGKGLEWIGLIKPSNGGTSYNQKFKGRVTISADKSISTAYLQWSSLKASDTAMYYCAHGHYESYFAMDYWGQGTLVTVSS VL: DIQMTQSPSSLSASVGDRVTITCKASQDVSSAVAWYQQKPGQAPRLLIYWASTRHTGVPSRFSGSGSGTEFTLTISSLQPDDFATYYCQEHFSTPLTFGQGTKVEIK	1.59	1
HC-S103Q (antibody, V domains shown, CPE single point mutant) VH: EVQLVQSGAEVKKPGATVKISCKVSGYSFTGHTMNWIRQPPGKGLEWIGLIKPSNGGTSYNQKFKGRVTISADKSISTAYLQWSSLKASDTAMYYCAHGHYEQYFAMDYWGQGTLVTVSS VL: DIQMTQSPSSLSASVGDRVTITCKASQDVSSAVAWYQQKPGQAPRLLIYWASTRHTGVPSRFSGSGSGTEFTLTISSLQPDDFATYYCQEHFSTPLTFGQGTKVEIK	0.912	2.26
HC-T030A (antibody, V domains shown, CPE single point mutant) VH: EVQLVQSGAEVKKPGATVKISCKVSGYSFAGHTMNWIRQPPGKGLEWIGLIKPSNGGTSYNQKFKGRVTISADKSISTAYLQWSSLKASDTAMYYCAHGHYESYFAMDYWGQGTLVTVSS VL: DIQMTQSPSSLSASVGDRVTITCKASQDVSSAVAWYQQKPGQAPRLLIYWASTRHTGVPSRFSGSGSGTEFTLTISSLQPDDFATYYCQEHFSTPLTFGQGTKVEIK	1.29	1.76
LC-A032L (antibody, V domains shown, CPE single point mutant) VH: EVQLVQSGAEVKKPGATVKISCKVSGYSFTGHTMNWIRQPPGKGLEWIGLIKPSNGGTSYNQKFKGRVTISADKSISTAYLQWSSLKASDTAMYYCAHGHYESYFAMDYWGQGTLVTVSS VL: DIQMTQSPSSLSASVGDRVTITCKASQDVSSLVAWYQQKPGQAPRLLIYWASTRHTGVPSRFSGSGSGTEFTLTISSLQPDDFATYYCQEHFSTPLTFGQGTKVEIK	1.9	2.27

Next, values leading:

Affinity ELISA CPE mutant ratio (1:3, pH 6.0/7.4) [1]	Affinity ELISA CPE mutant ratio (1:9, pH 6.0/7.4) [2]	Binder
1.92	1.57	LC-A051P (antibody, V domains shown, CPE single point mutant) VH: EVQLVQSGAEVKKPGATVKISCKVSGYSFTGHTMNWIRQPPGKGLEWIGLIKPSNGGTSYNQKFKGRVTISADKSISTAYLQWSSLKASDTAMYYCAHGHYESYFAMDYWGQGTLVTVSS VL: DIQMTQSPSSLSASVGDRVTITCKASQDVSSAVAWYQQKPGQAPRLLIYWPSTRHTGVPSRFSGSGSGTEFTLTISSLQPDDFATYYCQEHFSTPLTFGQGTKVEIK
2.24	2.14	LC-A051I (antibody, V domains shown, CPE single point mutant) VH: EVQLVQSGAEVKKPGATVKISCKVSGYSFTGHTMNWIRQPPGKGLEWIGLIKPSNGGTSYNQKFKGRVTISADKSISTAYLQWSSLKASDTAMYYCAHGHYESYFAMDYWGQGTLVTVSS VL: DIQMTQSPSSLSASVGDRVTITCKASQDVSSAVAWYQQKPGQAPRLLIYWISTRHTGVPSRFSGSGSGTEFTLTISSLQPDDFATYYCQEHFSTPLTFGQGTKVEIK
2.63	2.4	LC-A034N (antibody, V domains shown, CPE single point mutant) VH: EVQLVQSGAEVKKPGATVKISCKVSGYSFTGHTMNWIRQPPGKGLEWIGLIKPSNGGTSYNQKFKGRVTISADKSISTAYLQWSSLKASDTAMYYCAHGHYESYFAMDYWGQGTLVTVSS VL: DIQMTQSPSSLSASVGDRVTITCKASQDVSSAVNWYQQKPGQAPRLLIYWASTRHTGVPSRFSGSGSGTEFTLTISSLQPDDFATYYCQEHFSTPLTFGQGTKVEIK
2	1.41	LC-A034Q (antibody, V domains shown, CPE single point mutant) VH: EVQLVQSGAEVKKPGATVKISCKVSGYSFTGHTMNWIRQPPGKGLEWIGLIKPSNGGTSYNQKFKGRVTISADKSISTAYLQWSSLKASDTAMYYCAHGHYESYFAMDYWGQGTLVTVSS VL: DIQMTQSPSSLSASVGDRVTITCKASQDVSSAVQWYQQKPGQAPRLLIYWASTRHTGVPSRFSGSGSGTEFTLTISSLQPDDFATYYCQEHFSTPLTFGQGTKVEIK
1.41	2.2	LC-A051N (antibody, V domains shown, CPE single point mutant) VH: EVQLVQSGAEVKKPGATVKISCKVSGYSFTGHTMNWIRQPPGKGLEWIGLIKPSNGGTSYNQKFKGRVTISADKSISTAYLQWSSLKASDTAMYYCAHGHYESYFAMDYWGQGTLVTVSS VL: DIQMTQSPSSLSASVGDRVTITCKASQDVSSAVAWYQQKPGQAPRLLIYWNSTRHTGVPSRFSGSGSGTEFTLTISSLQPDDFATYYCQEHFSTPLTFGQGTKVEIK
